Results: patent publication US20250163138A1 (Alexion, published 2025)
Where a chain is given by its changes, count along the chain named. Names may count otherwise.

Tests used:
human serum albumin [1] = target: T1, human serum albumin (human, UniProt P02768 25-609); test: SPR (Biacore 3000), HSA amine-coupled on CM5 chip, pH 6.0, no VHH
T1 construct: also called HSA; human albumin

human serum albumin [2] = target: T1, human serum albumin; test: BLI (Octet HTX), VHH-His on Penta-His sensors, 100 nM albumin
Source text: (§1) VHH sequences were first analyzed by SDS-PAGE and Coomassie staining to determine approximate concentration relative to a known standard. Supernatant concentrations were then normalized and subjected to biolayer interferometry on an Octet HTX (Pall/ForteBio). Penta-His sensors were exposed to kinetics buffer for 60 seconds to establish baseline measurements. The sensors were then loaded with VHH-His containing supernatants for 300 seconds before a second baseline was established in kinetics buffer over 120 seconds. Tips were then incubated with 100 nM HSA or CSA in kinetics buffer for 600 seconds and dissociation measured over an additional 600 seconds.

[3] = target: T2, Cynomolgus monkey serum albumin (cynomolgus monkey, UniProt A2V9Z4 25-608); test: as above
T2 construct: also called CSA; cynomolgus albumin
Source text: as §1

[4] = target: T3, cynomolgus monkey (cyno) complement protein C5 (cynomolgus monkey, UniProt A0A2K5U1T1 19-1676); test: SPR (Biacore), pH 6.0
T3 construct: also called cC5; cyno C5

[5] = target: T4, human complement protein C5 (human, UniProt P01031 19-1676); test: SPR (Biacore), pH 6.0
T4 construct: Native C5 is a two-chain protein made from one precursor; also called hC5; human C5

[6] = target: T3, cynomolgus monkey (cyno) complement …; test: SPR (Biacore), pH 7.4
[7] = target: T4, human complement protein C5; test: SPR (Biacore), pH 7.4
[8] = target: T3, cynomolgus monkey (cyno) complement …; test: binding kinetics (method not named), pH 7.4
[9] = target: T4, human complement protein C5; test: binding kinetics (method not named), pH 7.4
[10] = target: T2, Cynomolgus monkey serum albumin; test: binding kinetics (method not named), pH 6.0
Plasbumin® [11] = target: T5, Plasbumin® (UniProt P02768 25-609); test: binding kinetics (method not named), pH 6.0
[12] = target: T2, Cynomolgus monkey serum albumin; test: binding kinetics (method not named), pH 7.4
Plasbumin® [13] = target: T5, Plasbumin®; test: binding kinetics (method not named), pH 7.4
[14] = target: T3, cynomolgus monkey (cyno) complement …; test: binding kinetics (method not named), pH 6.0
[15] = target: T4, human complement protein C5; test: binding kinetics (method not named), pH 6.0
human serum albumin [16] = target: T1, human serum albumin; test: sandwich: biotin-hC5 on CAP chip, test protein, then albumin; column 'Human C5 and Human Albumin'; protein has no anti-albumin domain
Procedure: (§2) The 26 constructs listed in Table 13 were expressed and the fusion proteins were evaluated for binding to human C5 and albumin (Table 13-Octet binding), generation of aggregates, hydrophobicity (HIC HPLC) and glycosylation (electrospray mass spectrometry). For the octet analysis, biotinylated human C5 was captured on a CAP chip followed by an injection of a test bi-specific molecule. Various concentrations of albumin were subsequently injected. Kinetics were determined at pH 7.4 (Biacore 3000).

[17] = target: T4, human complement protein C5; test: sandwich: biotin-hC5 on CAP chip, test protein, then albumin; column 'Human C5 and Human Albumin'; protein has no anti-C5 domain
Procedure: as §2

Q: How did the response difference (human serum albumin [1]) turn out when FcRn (receptor) was run?
A: 30 RU

B1: HAS042 (VHH)
VHH: EVQLVESGGGLVKPGGSLRLSCAASGRPVSNYAAAWFRQAPGKEREFVSAINWQKTATYADSVKGRFTISRDNAKNSLYLQMNSLRAEDTAVYYCAAVFRVVAPKTQYDYDYWGQGTLVTVSS
notes: anti-albumin VHH-His
Q: Does B1 bind (human serum albumin [2])?
A: binds

Q: Does B1 bind [3]?
A: binds

B2: CRL0484 (bispecific antibody)
chain: EVQLVESGGGLVQPGGSLRLSCAASGRTFSGILSPYAVGWFRQAPGKGLEFVSTITSGGSAIYTDSVKGRFTISRDNAKDSLYLQMNSLRAEDTAVYYCAVRTRRYGSNLGEVPQENEYGYWGQGTLVTVSSGGGGSGGGGSGGGGSEVQLVESGGGLVKPGGSLRLSCAASGRPVSNYAAAWFRQAPGKEREFVSAINWQKTATYADSVKGRFTISRDNAKNSLYLQMNSLRAEDTAVYYCAAVFRVVAPKTQYDYDYWGQGTLVTVSS
notes: anti-C5 VHH / (G4S)3 / anti-albumin VHH fusion, purified by Protein A; also called CRL0484 (C5/HSA)
Q: For B2, which Kd [4] is on record?
A: 0.128 nM

Q: And the koff [4]?
A: 6.17e-06 s⁻¹

Q: What about the kon [4] of the same molecule?
A: 48200 M⁻¹ s⁻¹

Q: What about the Kd [5] of the same molecule?
A: 0.556 nM

Q: And the koff [5]?
A: 0.000236 s⁻¹

Q: And the kon [5]?
A: 425000 M⁻¹ s⁻¹

Q: And the Kd [6]?
A: 0.24 nM

Q: What about the koff [6] of the same molecule?
A: 2.2e-05 s⁻¹

Q: What about the kon [6] of the same molecule?
A: 91500 M⁻¹ s⁻¹

Q: And the Kd [7]?
A: 1.1 nM

Q: And the koff [7]?
A: 7.69e-05 s⁻¹

Q: And the kon [7]?
A: 70100 M⁻¹ s⁻¹

B3: CRL0500 (bispecific antibody)
chain: EVQLVESGGGLVKPGGSLRLSCAASGRPVSNYAAAWFRQAPGKEREFVSAINWQKTATYADSVKGRFTISRDNAKNSLYLQMNSLRAEDTAVYYCAAVFRVVAPKTQYDYDYWGQGTLVTVSSGGGGSGGGGSGGGGSEVQLVESGGGLVQPGGSLRLSCAASGRAHSDYAMAWFRQAPGQEREFVAGIGWSGGDTLYADSVRGRFTNSRDNSKNTLYLQMNSLRAEDTAVYYCAARQGQYIYSSMRSDSYDYWGQGTLVTVSS
notes: anti-albumin VHH / (G4S)3 / anti-C5 VHH fusion, purified by Protein A; also called CRL0500 (HSA/C5)
Q: Which Kd [8] does the source give for B3 here?
A: 0.219 nM

Q: What about the koff [8] of the same molecule?
A: 0.000818 s⁻¹

Q: And the kon [8]?
A: 3.74e+06 M⁻¹ s⁻¹

Q: And the Kd [9]?
A: 0.0512 nM

Q: What about the koff [9] of the same molecule?
A: 0.000491 s⁻¹

Q: What about the kon [9] of the same molecule?
A: 9.6e+06 M⁻¹ s⁻¹

Q: And the Kd [10]?
A: 2.12 nM

Q: What about the koff [10] of the same molecule?
A: 0.00693 s⁻¹

Q: And the kon [10]?
A: 3.27e+06 M⁻¹ s⁻¹

Q: And the Kd (Plasbumin® [11])?
A: 0.563 nM

Q: And the koff (Plasbumin® [11])?
A: 0.002 s⁻¹

Q: What about the kon (Plasbumin® [11]) of the same molecule?
A: 3.55e+06 M⁻¹ s⁻¹

Q: What about the Kd [4] of the same molecule?
A: 0.641 nM

Q: What about the koff [4] of the same molecule?
A: 0.0025 s⁻¹

Q: And the kon [4]?
A: 3.91e+06 M⁻¹ s⁻¹

Q: What about the Kd [5] of the same molecule?
A: 0.189 nM

Q: And the koff [5]?
A: 0.00152 s⁻¹

Q: What about the kon [5] of the same molecule?
A: 8.02e+06 M⁻¹ s⁻¹

Q: What about the Kd [12] of the same molecule?
A: 3.78 nM

Q: What about the koff [12] of the same molecule?
A: 0.0126 s⁻¹

Q: And the kon [12]?
A: 3.32e+06 M⁻¹ s⁻¹

Q: What about the Kd (Plasbumin® [13]) of the same molecule?
A: 0.936 nM

Q: And the koff (Plasbumin® [13])?
A: 0.00346 s⁻¹

Q: And the kon (Plasbumin® [13])?
A: 3.7e+06 M⁻¹ s⁻¹

Q: And the Kd [6]?
A: 0.42 nM

Q: And the koff [6]?
A: 0.000848 s⁻¹

Q: And the kon [6]?
A: 2e+06 M⁻¹ s⁻¹

Q: And the Kd [7]?
A: 0.233 nM

Q: What about the koff [7] of the same molecule?
A: 0.000672 s⁻¹

Q: What about the kon [7] of the same molecule?
A: 2.88e+06 M⁻¹ s⁻¹

Q: What about the Kd [14] of the same molecule?
A: 0.744 nM

Q: What about the koff [14] of the same molecule?
A: 0.0041 s⁻¹

Q: What about the kon [14] of the same molecule?
A: 5.51e+06 M⁻¹ s⁻¹

Q: And the Kd [15]?
A: 0.138 nM

Q: What about the koff [15] of the same molecule?
A: 0.00104 s⁻¹

Q: And the kon [15]?
A: 7.56e+06 M⁻¹ s⁻¹

B4: CRL0952 (bispecific antibody)
chain: B3 chain with S128A, S133A
Q: Which Kd [8] does the source give for B4 here?
A: 0.223 nM

Q: And the koff [8]?
A: 0.000786 s⁻¹

Q: And the kon [8]?
A: 3.53e+06 M⁻¹ s⁻¹

Q: And the Kd [9]?
A: 0.0536 nM

Q: What about the koff [9] of the same molecule?
A: 0.000539 s⁻¹

Q: And the kon [9]?
A: 1.01e+07 M⁻¹ s⁻¹

Q: And the Kd [10]?
A: 2.49 nM

Q: What about the koff [10] of the same molecule?
A: 0.00755 s⁻¹

Q: What about the kon [10] of the same molecule?
A: 3.03e+06 M⁻¹ s⁻¹

Q: What about the Kd (Plasbumin® [11]) of the same molecule?
A: 0.649 nM

Q: What about the koff (Plasbumin® [11]) of the same molecule?
A: 0.0021 s⁻¹

Q: What about the kon (Plasbumin® [11]) of the same molecule?
A: 3.23e+06 M⁻¹ s⁻¹

Q: And the Kd [12]?
A: 5.19 nM

Q: And the koff [12]?
A: 0.0152 s⁻¹

Q: And the kon [12]?
A: 2.93e+06 M⁻¹ s⁻¹

Q: And the Kd (Plasbumin® [13])?
A: 0.901 nM

Q: And the koff (Plasbumin® [13])?
A: 0.00359 s⁻¹

Q: And the kon (Plasbumin® [13])?
A: 3.98e+06 M⁻¹ s⁻¹

Q: And the Kd [14]?
A: 0.72 nM

Q: What about the koff [14] of the same molecule?
A: 0.00399 s⁻¹

Q: What about the kon [14] of the same molecule?
A: 5.55e+06 M⁻¹ s⁻¹

Q: And the Kd [15]?
A: 0.155 nM

Q: And the koff [15]?
A: 0.000907 s⁻¹

Q: What about the kon [15] of the same molecule?
A: 5.84e+06 M⁻¹ s⁻¹

B5: TPP-3211 (VHH)
VHH: EVQLVESGGGLVQPGGSLRLSCAASGRAHSDYAMAWFRQAPGQEREFVAGIGWSGGDTLYADSVRGRFTNSRDNSKNTLYLQMNSLRAEDTAVYYCAARQGQYIYSSMRSDSYDYWGQGTLVTVSS
notes: Control: no anti-albumin domain (only anti-C5)
Q: Does B5 bind (human serum albumin [16])?
A: no binding

B6: TPP-3212 (VHH)
VHH: B1 VHH
notes: Control: no anti-C5 domain (only anti-albumin)
Q: Does B6 bind [17]?
A: no binding
